Experiment [1] addresses T1, soluble DR5-Fc fusion protein (UniProt O14763 56-182, limits assumed, biotin-labeled (sites not given)).
T1 construct: It was biotinylated and captured on streptavidin biosensors; also called DR5 (TRAIL-R2); biotinylated DR5-Fc; not shown: Fc part
Kind of experiment: BLI (ForteBio Octet), biotin-labeled DR5-Fc on streptavidin sensors. An excerpt:
(§1) Figure 7: FIG. 7 is the kinetic studies of TRAIL-Trimer, TRAIL-Fc and native TRAIL binding to the soluble DR5-Fc fusion protein assessed by biolayer interferometry measurements. The Super Streptavidin biosensor tips of the ForteBio Octet RED 96 were coated with biotinylated DR5-Fc. The biosensor tips were dipped in increasing concentrations gradient of TRAIL-Trimer, TRAIL-Fc and native TRAIL to measure their binding to DR5-Fc and subsequently moved to wells containing buffer (PBS) to measure dissociation rates. The dissociation constant Kd was shown for each graph. Figure 7: Figure 7:
(§2) Comparison of TRAIL-Trimer, TRAIL-Fc and Native TRAIL in Receptor Binding Avidity In Vitro DR5 (TRAIL-R2) is one of TRAIL's functional receptors which initiates extrinsic apoptosis pathway signaling upon activation; thus, we examined the binding kinetic profile of TRAIL-Trimer, TRAIL-Fc and native TRAIL to a soluble DR5-Fc fusion protein. With Fortebio biolayer interferometry measurement, the biotin-labeled DR5-Fc was first captured on Streptavidin (SA) sensors, and real-time binding curves were measured and plotted by applying the sensor in gradient concentrations (15.4 nM-123.5 nM) of the three analytes (FIG. 7).
(In general: In BLI a coated tip is dipped into the sample, and binding shifts an interference pattern.)

In experiment [2] the target is T1, soluble DR5-Fc fusion protein. Kind of experiment: biolayer interferometry (ForteBio Octet RED 96), biotinylated DR5-Fc captured on streptavidin biosensor tips, TRAIL-Trimer in solution at graded concentrations.
Excerpt: as §1, §2

The source of these data is patent publication US12168686 (CLOVER BIOPHARMACEUTICALS, dated 2024).

Usually koff stands for the first-order rate constant of dissociation. A word on the kon: it is the rate constant with which the complex forms. Low values mean slower complex formation, high ones faster complex formation. For orientation: Kd means the free concentration of one partner at which half of the binding sites on the other are occupied at equilibrium, for simple one-to-one binding. Low values mean higher affinity, high ones lower affinity.

T1 sequence (O14763 56-182 limits assumed): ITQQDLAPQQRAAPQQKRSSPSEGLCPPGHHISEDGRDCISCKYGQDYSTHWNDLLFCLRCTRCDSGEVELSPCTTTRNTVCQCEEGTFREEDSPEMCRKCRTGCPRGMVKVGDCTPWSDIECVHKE

B1: TRAIL-Trimer (mature human TRAIL fused to the C-propeptide of human alpha1(I) collagen, Trimer-Tag, with a mutated BMP-1 site) (ligand)
chain: VRERGPQRVAAHITGTRGRSNTLSSPNSKNEKALGRKINSWESSRSGHSFLSNLHLRNGELVIHEKGFYYIYSQTYFRFQEEIKENTKNDKQMVQYIYKYTSYPDPILLMKSARNSCWSKDAEYGLYSIYQGGIFELKENDRIFVSVTNEHLIDMDHEASFFGAFLVGGSNGLPGPIGPPGPRGRTGDAGPVGPPGPPGPPGPPGPPSAGFDFSFLPQPPQEKAHDGGRYYRANDANVVRDRDLEVDTTLKSLSQQIENIRSPEGSRKNPARTCRDLKMCHSDWKSGEYWIDPNQGCNLDAIKVFCNMETGETCVYPTQPSVAQKNWYISKNPKDKRHVWFGESMTDGFQFEYGGQGSDPADVAIQLTFLRLMSTEASQNITYHCKNSVAYMDQQTGNLKKALLLKGSNEIEIRAEGNSRFTYSVTVDGCTSHTGAWGKTVIEYKTTKSSRLPIIDVAPLDVGAPDQEFGFDVGPVCFL
notes: also called SCB-313; disulfide bond-linked trimeric TRAIL fusion protein
In experiment [1], B1 registered a koff below 1e-07 s⁻¹ and a kon of 81000 M⁻¹ s⁻¹. In experiment [2], this molecule displayed a Kd below 1 pM.
